Reference: US20150118233A1

Assays:
[1] = target: hRSV FTM- NN protein (membrane anchorless form of the Long fusion protein, 70 kDa) (hRSV strain Long); assay: Alphascreen competition: FTM- NN (0.3 nM) bridged by biotinylated Synagis Fab and 101F Fab acceptor beads
[2] = target: hRSV FTM- NN protein (membrane anchorless form of the Long fusion protein, 70 kDa) (hRSV strain Long); assay: SPR (Biacore T100), FTM- NN amine-coupled, 1:1 Langmuir fit
[3] = target: F protein of hRSV strain A-2 (hRSV strain A-2); assay: cell-based or functional assay
[4] = target: F protein of hRSV strain Long (hRSV strain Long); assay: cell-based or functional assay
[5] = target: F protein of Long escape mutant R7C2/1 (K272E in antigenic site II) (hRSV strain Long escape mutant); assay: cell-based or functional assay
[6] = target: F protein of Long escape mutant R7C2/11 (antigenic site II) (hRSV strain Long escape mutant); assay: cell-based or functional assay
[7] = target: F protein of hRSV strain B-1 (hRSV strain B-1); assay: cell-based or functional assay
F protein of hRSV strain B-1 (hRSV strain B-1), sequence (chain, as listed by the source limits assumed): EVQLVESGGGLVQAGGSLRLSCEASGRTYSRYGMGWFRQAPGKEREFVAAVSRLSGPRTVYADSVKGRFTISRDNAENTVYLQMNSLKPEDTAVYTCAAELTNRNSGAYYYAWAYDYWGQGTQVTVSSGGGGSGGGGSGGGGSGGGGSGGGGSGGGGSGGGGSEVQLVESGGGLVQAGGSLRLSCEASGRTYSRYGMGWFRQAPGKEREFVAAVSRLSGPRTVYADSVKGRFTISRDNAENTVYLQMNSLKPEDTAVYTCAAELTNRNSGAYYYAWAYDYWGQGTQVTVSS

F protein of hRSV strain A-2 (hRSV strain A-2), sequence (chain, as listed by the source limits assumed): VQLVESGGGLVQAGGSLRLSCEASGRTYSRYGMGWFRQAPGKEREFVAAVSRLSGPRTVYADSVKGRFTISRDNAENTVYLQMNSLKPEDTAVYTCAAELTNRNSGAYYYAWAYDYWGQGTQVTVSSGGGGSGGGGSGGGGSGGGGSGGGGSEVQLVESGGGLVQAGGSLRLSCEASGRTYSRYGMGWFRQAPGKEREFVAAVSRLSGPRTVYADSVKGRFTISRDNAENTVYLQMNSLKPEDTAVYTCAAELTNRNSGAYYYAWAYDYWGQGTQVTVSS
F protein of Long escape mutant R7C2/1 (K272E in antigenic site II) (hRSV strain Long escape mutant), sequence (chain, as listed by the source): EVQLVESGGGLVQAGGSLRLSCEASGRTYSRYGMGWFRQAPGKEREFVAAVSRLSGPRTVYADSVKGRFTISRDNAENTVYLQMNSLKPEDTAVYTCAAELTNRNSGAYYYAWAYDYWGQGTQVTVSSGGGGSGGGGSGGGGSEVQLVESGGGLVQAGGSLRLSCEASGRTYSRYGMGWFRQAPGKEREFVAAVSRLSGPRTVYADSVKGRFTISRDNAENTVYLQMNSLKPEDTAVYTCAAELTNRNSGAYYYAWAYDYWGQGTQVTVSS

Substance | IC50 [1] [nM] | Kd [2] [nM] | koff [2] [s⁻¹] | kon [2] [M⁻¹ s⁻¹] | RSV neutralization IC50 [3] [nM] | Neutralization IC50 (first assay) [4] [nM] | Neutralization IC50 (second assay) [4] [nM] | RSV neutralization IC50 [4] [nM] | neutralization of escape mutant virus, IC50 [5] [µM] | neutralization of escape mutant virus, IC50 [6] [µM] | Neutralization IC50 (first assay) [7] [nM] | Neutralization IC50 (second assay) [7] [nM] | RSV neutralization IC50 [7] [nM]
Numax Fab (Motavizumab or MEDI-524) | 0.086 | – | – | – | – | – | – | – | – | – | – | – | –
101F Fab | 1.12 | – | – | – | – | – | – | – | – | – | – | – | –
Synagis® (Palivizumab, humanized monoclonal antibody) | – | 0.64 | 0.00018 | 280000 | 2.5 | 7.3 | 6 | 4 | > 0.2 | > 0.2 | 2.1 | 2.9 | 1.7
